One block for each binder: values may come before it.
Legend:
[1] = target: T1, 人CD47胞外段-His tag重组蛋白 (SinoBiological 12283-H08H) (human, UniProt Q08722 19-139); test: BLI (Octet K2), HIS1K sensor loaded with CD47-his tag, antibody in solution, 1:1 fit
T1 construct: extracellular domain; Bought reagent; Captured on HIS1K sensor; also called CD47-his tag蛋白

[2] = target: T2, 经生物素标记的CD47-hFc蛋白 (biotin-labelled CD47-hFc protein, expressed in house) (UniProt Q08722 19-141, biotin-labelled (site not stated)); test: BLI (Octet K2), SA sensor loaded with biotinylated CD47-hFc, antibody in solution, 1:1 fit
T2 construct: Self-expressed; Captured on SA sensor
T2 sequence (Q08722 19-141): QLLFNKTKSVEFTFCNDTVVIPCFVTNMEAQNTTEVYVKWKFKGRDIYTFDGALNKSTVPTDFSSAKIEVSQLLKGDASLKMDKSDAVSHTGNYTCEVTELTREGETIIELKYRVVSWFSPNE

T1 sequence (Q08722 19-139 limits assumed): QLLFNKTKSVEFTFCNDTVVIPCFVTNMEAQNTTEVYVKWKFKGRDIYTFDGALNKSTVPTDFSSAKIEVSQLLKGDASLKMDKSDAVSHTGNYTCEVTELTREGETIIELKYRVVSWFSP

- Kd [1]: 0.221 nM
- Kd [2]: 0.192 nM
B1: 7DC2 (antibody, human IgG1, kappa, V domains shown)
VH: QVQLQQSGPELVKPGASVKMSCKASGYTFTNYFMHWVKQKPGQGLEWIGYINPYNDGTKYNEKFKGKATLTSDKSSSTAYMELSSLTSEDSAVYYCTKGGRYSMDYWGQGTTLTVSS
VL: DVVMTQTPLSLPVRLGDEVSISCRSSQTIVFTNGNTYLEWYLQKPGQSPKLLIYKVSNRFSGVPDRFSGSGSGTDFTLTISRVEAEDLGIYYCFQGSHVPYTFGGGTKLELKR
notes: Full-length chimeric antibody (mouse variable regions, human constant regions); also called 7DC2抗体

- Kd [1]: 0.0202 nM
- Kd [2]: 0.0276 nM
B2: 7DC4 (antibody, human IgG1, kappa, V domains shown)
VH: QVQLKQSGAELVQPGASVKLSCKASGYTFTNYYMYWLRQRPGQGLEWIGEINPSNGGTDFNEKFKSKATLTVDKSSSTAFMQLSSLTSDDSAVYYCARGGFTMDYWGQGTTVTVSS
VL: DVVMTQTPLSLPVSLGDQASISCRSSQSLVHSNGNTYLHWYLQKPGQSPKLLIYKVSNRFSGVPDRFSGSGSGTDFTLKISRVEAEDLGVYFCSQSTHVPLTFGAGTKLELKR
notes: Full-length chimeric antibody (mouse variable regions, human constant regions); also called 7DC4抗体

From patent CN116813769A (FUZHOU CREMAB PHARMACEUTICAL INC, dated 2023)
